Measured values taken from IntAct's records for PubMed 29892012.

B1: Protein VAC14 homolog (Homo sapiens), Q08AM6 (parent)
chain: MNPEKDFAPLTPNIVRALNDKLYEKRKVAALEIEKLVREFVAQNNTVQIKHVIQTLSQEFALSQHPHSRKGGLIGLAACSIALGKDSGLYLKELIEPVLTCFNDADSRLRYYACEALYNIVKVARGAVLPHFNVLFDGLSKLAADPDPNVKSGSELLDRLLKDIVTESNKFDLVSFIPLLRERIYSNNQYARQFIISWILVLESVPDINLLDYLPEILDGLFQILGDNGKEIRKMCEVVLGEFLKEIKKNPSSVKFAEMANILVIHCQTTDDLIQLTAMCWMREFIQLAGRVMLPYSSGILTAVLPCLAYDDRKKSIKEVANVCNQSLMKLVTPEDDELDELRPGQRQAEPTPDDALPKQEGTASGGPDGSCDSSFSSGISVFTAASTERAPVTLHLDGIVQVLNCHLSDTAIGMMTRIAVLKWLYHLYIKTPRKMFRHTDSLFPILLQTLSDESDEVILKDLEVLAEIASSPAGQTDDPGPLDGPDLQASHSELQVPTPGRAGLLNTSGTKGLECSPSTPTMNSYFYKFMINLLKRFSSERKLLEVRGPFIIRQLCLLLNAENIFHSMADILLREEDLKFASTMVHALNTILLTSTELFQLRNQLKDLKTLESQNLFCCLYRSWCHNPVTTVSLCFLTQNYRHAYDLIQKFGDLEVTVDFLAEVDKLVQLIECPIFTYLRLQLLDVKNNPYLIKALYGLLMLLPQSSAFQLLSHRLQCVPNPELLQTEDSLKAAPKSQKADSPSIDYAELLQHFEKVQNKHLEVRHQRSGRGDHLDRRVVL
partner: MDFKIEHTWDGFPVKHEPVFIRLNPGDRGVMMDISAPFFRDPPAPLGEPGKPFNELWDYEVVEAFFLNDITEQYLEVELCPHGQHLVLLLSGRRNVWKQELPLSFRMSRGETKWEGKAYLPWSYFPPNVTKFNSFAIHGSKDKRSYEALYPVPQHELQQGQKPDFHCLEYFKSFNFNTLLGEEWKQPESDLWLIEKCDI
B2: Transcription factor RFX3 (Homo sapiens), P48380 (parent)
chain: MQTSETGSDTGSTVTLQTSVASQAAVPTQVVQQVPVQQQVQQVQTVQQVQHVYPAQVQYVEGSDTVYTNGAIRTTTYPYTETQMYSQNTGGNYFDTQGSSAQVTTVVSSHSMVGTGGIQMGVTGGQLISSSGGTYLIGNSMENSGHSVTHTTRASPATIEMAIETLQKSDGLSTHRSSLLNSHLQWLLDNYETAEGVSLPRSTLYNHYLRHCQEHKLDPVNAASFGKLIRSIFMGLRTRRLGTRGNSKYHYYGIRVKPDSPLNRLQEDMQYMAMRQQPMQQKQRYKPMQKVDGVADGFTGSGQQTGTSVEQTVIAQSQHHQQFLDASRALPEFGEVEISSLPDGTTFEDIKSLQSLYREHCEAILDVVVNLQFSLIEKLWQTFWRYSPSTPTDGTTITESSNLSEIESRLPKAKLITLCKHESILKWMCNCDHGMYQALVEILIPDVLRPIPSALTQAIRNFAKSLEGWLSNAMNNIPQRMIQTKVAAVSAFAQTLRRYTSLNHLAQAARAVLQNTSQINQMLSDLNRVDFANVQEQASWVCQCDDNMVQRLETDFKMTLQQQSTLEQWAAWLDNVMMQALKPYEGRPSFPKAARQFLLKWSFYSSMVIRDLTLRSAASFGSFHLIRLLYDEYMFYLVEHRVAQATGETPIAVMGEFGDLNAVSPGNLDKDEGSEVESEMDEELDDSSEPQAKREKTELSQAFPVGCMQPVLETGVQPSLLNPIHSEHIVTSTQTIRQCSATGNTYTAV
partner: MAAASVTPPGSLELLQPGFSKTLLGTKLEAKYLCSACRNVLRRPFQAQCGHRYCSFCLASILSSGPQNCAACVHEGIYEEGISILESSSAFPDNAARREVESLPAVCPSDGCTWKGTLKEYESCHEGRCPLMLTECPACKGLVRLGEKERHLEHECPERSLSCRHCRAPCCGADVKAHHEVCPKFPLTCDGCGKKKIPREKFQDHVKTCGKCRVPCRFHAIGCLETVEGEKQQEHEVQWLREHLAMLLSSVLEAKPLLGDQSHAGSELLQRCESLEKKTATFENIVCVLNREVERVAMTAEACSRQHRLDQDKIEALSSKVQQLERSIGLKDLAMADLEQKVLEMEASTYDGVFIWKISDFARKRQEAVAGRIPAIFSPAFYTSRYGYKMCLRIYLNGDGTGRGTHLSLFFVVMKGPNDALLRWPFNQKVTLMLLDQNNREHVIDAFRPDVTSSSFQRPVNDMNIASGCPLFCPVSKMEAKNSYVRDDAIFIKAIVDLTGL
B3: Transmembrane protein 218 (Homo sapiens), A2RU14 (parent)
chain: MAGTVLGVGAGVFILALLWVAVLLLCVLLSRASGAARFSVIFLFFGAVIITSVLLLFPRAGEFPAPEVEVKIVDDFFIGRYVLLAFLSAIFLGGLFLVLIHYVLEPIYAKPLHSY
B4: Genetic suppressor element 1 (Homo sapiens), Q14687 (parent)
chain: MKGMSHEPKSPSLGMLSTATRTTATVNPLTPSPLNGALVPSGSPATSSALSAQAAPSSSFAAALRKLAKQAEEPRGSSLSSESSPVSSPATNHSSPASTPKRVPMGPIIVPPGGHSVPSTPPVVTIAPTKTVNGVWRSESRQDAGSRSSSGGRERLIVEPPLPQEKAGGPAIPSHLLSTPYPFGLSPSSVVQDSRFPPLNLQRPVHHVVPPSTVTEDYLRSFRPYHTTDDLRMSSLPPLGLDPATAAAYYHPSYLAPHPFPHPAFRMDDSYCLSALRSPFYPIPTPGSLPPLHPSAMHLHLSGVRYPPELSHSSLAALHSERMSGLSAERLQMDEELRREREREREREREREADREREKEREREREKEREQEKEREREKERERELERQREQRAREKELLAAKALEPSFLPVAELHGLRGHATEERGKPSEQLTPTRAEKLKDAGLQAPKPVQHPLHPVPTPHHTVPSLISNHGIFSLPSSSAATALLIQRTNEEEKWLARQRRLRQEKEDRQSQVSEFRQQVLEQHLDMGRPPVPAEAEHRPESTTRPGPNRHEPGGRDPPQHFGGPPPLISPKPQLHAAPTALWNPVSLMDNTLETRRAESHSLHSHPAAFEPSRQAAVPLVKVERVFCPEKAEEGPRKREPAPLDKYQPPPPPPREGGSLEHQPFLPGPGPFLAELEKSTQTILGQQRASLPQAATFGELSGPLKPGSPYRPPVPRAPDPAYIYDEFLQQRRRLVSKLDLEERRRREAQEKGYYYDLDDSYDESDEEEVRAHLRCVAEQPPLKLDTSSEKLEFLQLFGLTTQQQKEELVAQKRRKRRRMLRERSPSPPTIQSKRQTPSPRLALSTRYSPDEMNNSPNFEEKKKFLTIFNLTHISAEKRKDKERLVEMLRAMKQKALSAAVADSLTNSPRDSPAVSLSEPATQQASLDVEKPVGVAASLSDIPKAAEPGKLEQVRPQELSRVQELAPASGEKARLSEAPGGKKSLSMLHYIRGAAPKDIPVPLSHSTNGKSKPWEPFVAEEFAHQFHESVLQSTQKALQKHKGSVAVLSAEQNHKVDTSVHYNIPELQSSSRAPPPQHNGQQEPPTARKGPPTQELDRDSEEEEEEDDEDGEDEEEVPKRKWQGIEAVFEAYQEHIEEQNLERQVLQTQCRRLEARHYSLSLTAEQLSHSVAELRSQKQKMVSERERLQAELDHLRKCLALPAMHWPRGYLKGYPR

Variants of: B1
Settings: with cd033_human C4orf33, Q8N1A6

Row | effect of a mutation on the interaction | Variant
1 | with no effect | A127S

Variants of: B2
Settings: with traf2_human TRAF2, Q12933

Row | effect of a mutation on the interaction | Variant
2 | with no effect | S387C

Variants of: B3
Settings: with pcna_human PCNA

Row | effect of a mutation on the interaction | Variant
3 | with no effect | P66S

Variants of: B4
Settings: with rbpms_human RBPMS

Row | effect of a mutation on the interaction | Variant
4 | with no effect | E368K

Variants of: B4
Settings: with rcor3_human RCOR3, Q9P2K3

Row | effect of a mutation on the interaction | Variant
5 | with no effect | E368K
